# ± gives the standard deviation of the averaged measurements.
# Experiment: total protein half-life in vivo (active degradation + dilution); higher = more stable protein
# [1] = E. coli NCM3722 delta-clpP delta-lon delta-hslV, growth: N-lim chemostat, doubling time 6 h
# [2] = E. coli NCM3722 delta-clpP, growth: N-lim chemostat, doubling time 6 h
# [3] = E. coli NCM3722 delta-hslV, growth: N-lim chemostat, doubling time 6 h
# [4] = E. coli NCM3722 delta-lon, growth: N-lim chemostat, doubling time 6 h
# [5] = E. coli NCM3722 delta-smpB, growth: N-lim chemostat, doubling time 6 h
# [6] = wild type E. coli NCM3722, growth: C-lim chemostat, doubling time 6 h
# [7] = wild type E. coli NCM3722, growth: C-lim chemostat, doubling time 12 h
# [8] = wild type E. coli NCM3722, growth: N-lim chemostat, doubling time 6 h
# [9] = wild type E. coli NCM3722, growth: N-lim chemostat, doubling time 12 h
# [10] = wild type E. coli NCM3722, growth: P-lim chemostat, doubling time 6 h
# [11] = wild type E. coli NCM3722, growth: P-lim chemostat, doubling time 12 h
# [12] = wild type E. coli NCM3722, growth: C-lim chemostat, doubling time 3 h
Sequence,total protein half-life in vivo [1] [h],total protein half-life in vivo [2] [h],total protein half-life in vivo [3] [h],total protein half-life in vivo [4] [h],total protein half-life in vivo [5] [h],total protein half-life in vivo [6] [h],total protein half-life in vivo [7] [h],total protein half-life in vivo [8] [h],total protein half-life in vivo [9] [h],total protein half-life in vivo [10] [h],total protein half-life in vivo [11] [h],total protein half-life in vivo [12] [h]
MKSMNIAASSELVSRLSSHRRVVALGDTDFTDVAAVVITAADSRSGILALLKRTGFHLPVFLYSEHAVELPAGVTAVINGNEQQWLELESAACQYEENLLPPFYDTLTQYVEMGNSTFACPGHQHGAFFKKHPAGRHFYDFFGENVFRADMCNADVKLGDLLIHEGSAKDAQKFAAKVFHADKTYFVLNGTSAANKVVTNALLTRGDLVLFDRNNHKSNHHGALIQAGATPVYLEASRNPFGFIGGIDAHCFNEEYLRQQIRDVAPEKADLPRPYRLAIIQLGTYDGTVYNARQVIDTVGHLCDYILFDSAWVGYEQFIPMMADSSPLLLELNENDPGIFVTQSVHKQQAGFSQTSQIHKKDNHIRGQARFCPHKRLNNAFMLHASTSPFYPLFAALDVNAKIHEGESGRRLWAECVEIGIEARKAILARCKLFRPFIPPVVDGKLWQDYPTSVLASDRRFFSFEPGAKWHGFEGYAADQYFVDPCKLLLTTPGIDAETGEYSDFGVPATILAHYLRENGIVPEKCDLNSILFLLTPAESHEKLAQLVAMLAQFEQHIEDDSPLVEVLPSVYNKYPVRYRDYTLRQLCQEMHDLYVSFDVKDLQKAMFRQQSFPSVVMNPQDAHSAYIRGDVELVRIRDAEGRIAAEGALPYPPGVLCVVPGEVWGGAVQRYFLALEEGVNLLPGFSPELQGVYSETDADGVKRLYGYVLK,4.97 ± 0.45,4.68 ± 0.86,4.28 ± 0.14,4.69 ± 0.36,4.34 ± 0.089,5.18 ± 0.13,8.46 ± 1.1,4.44 ± 0.13,8.46 ± 0.59,6.15 ± 0.14,12.3 ± 1.8,–
MKSRAAVAFAPGKPLEIVEIDVAPPKKGEVLIKVTHTGVCHTDAFTLSGDDPEGVFPVVLGHEGAGVVVEVGEGVTSVKPGDHVIPLYTAECGECEFCRSGKTNLCVAVRETQGKGLMPDGTTRFSYNGQPLYHYMGCSTFSEYTVVAEVSLAKINPEANHEHVCLLGCGVTTGIGAVHNTAKVQPGDSVAVFGLGAIGLAVVQGARQAKAGRIIAIDTNPKKFDLARRFGATDCINPNDYDKPIKDVLLDINKWGIDHTFECIGNVNVMRAALESAHRGWGQSVIIGVAVAGQEISTRPFQLVTGRVWKGSAFGGVKGRSQLPGMVEDAMKGDIDLEPFVTHTMSLDEINDAFDLMHEGKSIRTVIRY,5.33 ± 0.98,4.73 ± 0.68,4.43 ± 0.28,4.95 ± 0.45,4.24 ± 0.45,5.87 ± 0.69,10.1 ± 1,4.1 ± 0.47,6.819 ± 0.021,5.6 ± 0.19,11.4 ± 0.52,2.68 ± 0.26
MKSSTTIITAYFDIGRGDWTANKGFREKLARSVDVYFSYFERLAALENEMIIFTSPDLKPRVEAIRNGKPTTVIVIDIKKKFRYIRSRIEKIQKDESFTNRLEPRQLKNPEYWSPEYVLVCNLKAYFVNKAINMGLVKTPLVAWIDFGYCHKPNVTRGLKIWDFPFDESKMHLFTIKKGLTVTSQQQVFDFMIGNHVYIIGGAIVGSQHKWKEFYKLVLESQKITLNNNIVDDDQGIFVMCYYKRPDLFNLNYLGRGKWFDLFRCFRSNTLGAKMQALRIFLSRK,6.61 ± 0.098,6.18 ± 0.28,5.99 ± 0.11,6.49 ± 0.38,5.52 ± 0.26,5.548 ± 0.042,10.7 ± 0.57,5.82 ± 0.57,11.6 ± 0.62,5.85 ± 0.86,11.4 ± 0.17,2.82 ± 0.13
MKTETPSVKIVAITADEAGQRIDNFLRTQLKGVPKSMIYRILRKGEVRVNKKRIKPEYKLEAGDEVRIPPVRVAEREEEAVSPHLQKVAALADVILYEDDHILVLNKPSGTAVHGGSGLSFGVIEGLRALRPEARFLELVHRLDRDTSGVLLVAKKRSALRSLHEQLREKGMQKDYLALVRGQWQSHVKSVQAPLLKNILQSGERIVRVSQEGKPSETRFKVEERYAFATLVRCSPVTGRTHQIRVHTQYAGHPIAFDDRYGDREFDRQLTEAGTGLNRLFLHAAALKFTHPGTGEVMRIEAPMDEGLKRCLQKLRNAR [P0AA39],5.63 ± 0.067,5.2 ± 0.19,5.84 ± 1,5.68 ± 0.26,5.43 ± 0.88,5.78 ± 0.14,9.77 ± 0.8,5.21 ± 0.31,9.13 ± 0.59,5.56 ± 0.089,11.6 ± 0.92,3.01 ± 0.092
MKTFSDRWRQLDWDDIRLRINGKTAADVERALNASQLTRDDMMALLSPAASGYLEQLAQRAQRLTRQRFGNTVSFYVPLYLSNLCANDCTYCGFSMSNRIKRKTLDEADIARESAAIREMGFEHLLLVTGEHQAKVGMDYFRRHLPALREQFSSLQMEVQPLAETEYAELKQLGLDGVMVYQETYHEATYARHHLKGKKQDFFWRLETPDRLGRAGIDKIGLGALIGLSDNWRVDSYMVAEHLLWLQQHYWQSRYSVSFPRLRPCTGGIEPASIMDERQLVQTICAFRLLAPEIELSLSTRESPWFRDRVIPLAINNVSAFSKTQPGGYADNHPELEQFSPHDDRRPEAVAAALTAQGLQPVWKDWDSYLGRASQRL,4.35 ± 0.4,0.761 ± 0.12,0.71 ± 0.041,1.45 ± 0.13,0.7458 ± 0.0057,1.02 ± 0.03,0.988 ± 0.12,0.86 ± 0.0097,1.08 ± 0.084,1.09 ± 0.25,1.93 ± 0.64,0.948 ± 0.075
MKTGMFTCGHQRLPIEHAFRDASELGYDGIEIWGGRPHAFAPDLKAGGIKQIKALAQTYQMPIIGYTPETNGYPYNMMLGDEHMRRESLDMIKLAMDMAKEMNAGYTLISAAHAGYLTPPNVIWGRLAENLSELCEYAENIGMDLILEPLTPYESNVVCNANDVLHALALVPSPRLFSMVDICAPYVQAEPVMSYFDKLGDKLRHLHIVDSDGASDTHYIPGEGKMPLRELMRDIIERGYEGYCTVELVTMYMNEPRLYARQALERFRALLPEDER,7.09,–,–,–,–,–,6.86,–,–,–,–,> 4
MKTGSEFHVGIVGLGSMGMGAALSYVRAGLSTWGADLNSNACATLKEAGACGVSDNAATFAEKLDALLVLVVNAAQVKQVLFGETGVAQHLKPGTAVMVSSTIASADAQEIATALAGFDLEMLDAPVSGGAVKAANGEMTVMASGSDIAFERLAPVLEAVAGKVYRIGAEPGLGSTVKIIHQLLAGVHIAAGAEAMALAARAGIPLDVMYDVVTNAAGNSWMFENRMRHVVDGDYTPHSAVDIFVKDLGLVADTAKALHFPLPLASTALNMFTSASNAGYGKEDDSAVIKIFSGITLPGAKS,5.94,–,–,–,–,0.509,1.69 ± 1.5,–,–,–,–,0.261
MKTIFTVGAVVLATCLLSGCVNEQKVNQLASNVQTLNAKIARLEQDMKALRPQIYAAKSEANRANTRLDAQDYFDCLRCLRMYAE,7.01,–,–,–,5.17,–,6.54,–,–,–,> 16,–
MKTIHDIRRSNARKLRDGVGGNSSFATMIDREPTQTSRFMGDGATKNIGDSMARHIEKCFDLPVGWLDQEHQTTNITKKPDVSITNKQITLVPVISWVQAGAWKEVGYSEVDLSTAETYPCPVPCGEMTYILRVIGDSMIDEYRPGDMIFVDPEVPACHGDDVIALMHDTGETTFKRLIEDGTQRYLKALNPNWPEPYIKINGNCSIIGTVIFSGKPRRYKIKA,5.24 ± 0.42,5.02 ± 0.3,4.84 ± 0.77,4.886 ± 0.017,5.12 ± 0.24,6.8 ± 0.23,9.86 ± 0.61,5.26 ± 0.76,7.94 ± 0.96,4.81 ± 0.62,12.7 ± 2,–
MKTLFSRLITVIACFFIFSAAWFCLWSISLHLVERPDMAVLLFPFGLRLGLMLQCPRGYWPVLLGAEWLLIYWLTQAVGLTHFPLLMIGSLLTLLPVALISRYRHQRDWRTLLLQGAALTAAALLQSLPWLWHGKESWNALLLTLTGGLTLAPICLVFWHYLANNTWLPLGPSLVSQPINWRGRHLVWYLLLFVISLWLQLGLPDELSRFTPFCLALPIIALAWHYGWQGALIATLMNAIALIASQTWRDHPVDLLLSLLVQSLTGLLLGAGIQRLRELNQSLQKELARNQHLAERLLETEESVRRDVARELHDDIGQTITAIRTQAGIVQRLAADNASVKQSGQLIEQLSLGVYDAVRRLLGRLRPRQLDDLTLEQAIRSLMREMELEGRGIVSHLEWRIDESALSENQRVTLFRVCQEGLNNIVKHADASAVTLQGWQQDERLMLVIEDDGSGLPPGSGQQGFGLTGMRERVTALGGTLHISCLHGTRVSVSLPQRYV,5.18 ± 1.4,5.44 ± 0.69,6.91,6.14 ± 0.34,5.72 ± 0.14,4.79 ± 0.62,10 ± 2.2,6.09 ± 0.24,–,6.19,–,2.75 ± 0.13
MKTLGEFIVEKQHEFSHATGELTALLSAIKLGAKIIHRDINKAGLVDILGASGAENVQGEVQQKLDLFANEKLKAALKARDIVAGIASEEEDEIVVFEGCEHAKYVVLMDPLDGSSNIDVNVSVGTIFSIYRRVTPVGTPVTEEDFLQPGNKQVAAGYVVYGSSTMLVYTTGCGVHAFTYDPSLGVFCLCQERMRFPEKGKTYSINEGNYIKFPNGVKKYIKFCQEEDKSTNRPYTSRYIGSLVADFHRNLLKGGIYLYPSTASHPDGKLRLLYECNPMAFLAEQAGGKASDGKERILDIIPETLHQRRSFFVGNDHMVEDVERFIREFPDA [P0A993],4.22 ± 0.099,3.02 ± 0.088,3.76 ± 0.66,3.84 ± 0.51,3.21 ± 0.12,5.02 ± 0.3,8.6 ± 0.59,3.19 ± 0.06,4.68 ± 0.09,5.796 ± 0.011,10.6 ± 0.24,2.93 ± 0.38
MKTLIARHKAGEHIGICSVCSAHPLVIEAALAFDRNSTRKVLIEATSNQVNQFGGYTGMTPADFREFVFTIADKVGFARERIILGGDHLGPNCWQQENADAAMEKSVELVKEYVRAGFSKIHLDASMSCAGDPIPLAPETVAERAAVLCFAAESVATDCQREQLSYVIGTEVPVPGGEASAIQSVHITHVEDAANTLRTHQKAFIARGLTEALTRVIAIVVQPGVEFDHSNIIHYQPQEAQPLAQWIENTRMVYEAHSTDYQTRTAYWELVRDHFAILKVGPALTFALREAIFALAQIEQELIAPENRSGCLAVIEEVMLDEPQYWKKYYRTGFNDSLLDIRYSLSDRIRYYWPHSRIKNSVETMMVNLEGVDIPLGMISQYLPKQFERIQSGELSAIPHQLIMDKIYDVLRAYRYGCAE [P0C8J8],5.59,–,–,–,–,2.97,–,> 8,–,–,–,–
MKTLILFSTRDGQTREIASYLASELKELGIQADVANVHRIEEPQWENYDRVVIGASIRYGHYHSAFQEFVKKHATRLNSMPSAFYSVNLVARKPEKRTPQTNSYARKFLMNSQWRPDRCAVIAGALRYPRYRWYDRFMIKLIMKMSGGETDTRKEVVYTDWEQVANFAREIAHLTDKPTLK [P0ACB4],6.5 ± 0.98,6.1 ± 0.4,6.54 ± 0.68,6.2 ± 0.14,5.74 ± 0.11,5.733 ± 0.054,9.62 ± 0.39,5.4517 ± 0.0046,11.18 ± 0.03,5.69 ± 0.12,11.9 ± 0.72,3.05 ± 0.23
MKTNIKVFTSTGELTTLGRELGKGGEGAVYDIEEFVDSVAKIYHTPPPALKQDKLAFMAATADAQLLNYVAWPQATLHGGRGGKVIGFMMPKVSGKEPIHMIYSPAHRRQSYPHCAWDFLLYVARNIASSFATVHEHGHVVGDVNQNSFMVGRDSKVVLIDSDSFQINANGTLHLCEVGVSHFTPPELQTLPSFVGFERTENHDNFGLALLIFHVLFGGRHPYSGVPLISDAGNALETDITHFRYAYASDNQRRGLKPPPRSIPLSMLPSDVEAMFQQAFTESGVATGRPTAKAWVAALDSLRQQLKKCIVSAMHVYPAHLTDCPWCALDNQGVIYFIDLGEEVITTGGNFVLAKVWAMVMASVAPPALQLPLPDHFQPTGRPLPLGLLRREYIILLEIALSALSLLLCGLQAEPRYIILVPVLAAIWIIGSLTSKAYKAEVQQRREAFNRAKMDYDHLVRQIQQVGGLEGFIAKRTMLEKMKDEILGLPEEEKRALAALHDTARERQKQKFLEGFFIDVASIPGVGPARKAALRSFGIETAADVTRRGVKQVKGFGDHLTQAVIDWKASCERRFVFRPNEAITPADRQAVMAKMTAKRHRLESALTVGATELQRFRLHAPARTMPLMEPLRQAAEKLAQAQADLSRC,4.54,4.86,–,–,–,–,–,–,–,–,–,–

# Source: the supplement of paper PMC11246515
